Test results reported in doi:10.1101/2022.05.27.493400.
pKd: −log10 of the molar value. “And” between values parts separate entries of the source, which are not always exact repeats. Equal values may be shown once.

Target: SARS-CoV-2 spike protein, extraviral domain (aa 1-1213) (SARS-CoV-2) (UniProt P0DTC2)
Assay: SPR

Question: How did the KD of a single replicate, from Langmuir isotherm turn out when “pineapple-derived jacalin-related lectin AcmJRL (natural protein)” was run?
Answer: 7.9 µM and 11.5 µM and 14 µM

Question: And the KD of a single replicate, from rate constants?
Answer: 3.1 µM and 4 µM and 2.7 µM

Question: And the pKd?
Answer: 5.49 and 4.95

Question: What about the koff of the same substance?
Answer: 0.00342 s⁻¹

Question: And the kon?
Answer: 1060 M⁻¹ s⁻¹
